Results as given in PMC3561183, “Discovery of a Siderophore Export System Essential for Virulence of Mycobacterium tuberculosis” (PLoS Pathogens, 2013).

Target: T1, Loop L1 of MmpL4 (residues 58-199) (Mycobacterium tuberculosis, UniProt P9WJV3 58-199)
T1 construct: MmpL4 of Mycobacterium tuberculosis, predicted loop L1 between TM1 and TM2, residues 58-199; also called L1 loop of MmpL4; periplasmic loop of MmpL4
T1 sequence: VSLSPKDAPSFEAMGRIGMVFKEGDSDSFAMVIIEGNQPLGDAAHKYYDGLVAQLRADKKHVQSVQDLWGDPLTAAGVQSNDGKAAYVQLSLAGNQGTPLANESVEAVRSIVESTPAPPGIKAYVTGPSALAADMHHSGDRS
Experiment: pull-down
Settings: both partners purified

B1: C-terminal soluble domain of MmpS4 (residues 52-140) (domain or fragment)
chain: HLTYEIFGPPGTVADISYFDVNSEPQRVDGAVLPWSLHITTNDAAVMGNIVAQGNSDSIGCRITVDGKVRAERVSNEVNAYTYCLVKSA
notes: MmpS4 (rv0451c) of Mycobacterium tuberculosis, residues 52-140: N-terminally truncated, lacks the predicted transmembrane helix; also called MmpS4_(52-140); water-soluble domain of MmpS4
binding result: binds
